In publication PMC12303382:

Biological target: Clostridioides difficile transferase B component, CDTb_(45-876), activated with trypsin (Clostridioides difficile) (UniProt O32739)
Assay: SDS-PAGE of SDS-resistant oligomers

Clostridioides difficile transferase B component, CDTb_(45-876), activated with trypsin (from UniProt O32739 45-876) (natural protein)
fold enhancement of oligomerization with 2.5 M ethanol over water: 7.5 fold
